# Measurements: the RNAGym collection of RNA variant scans (doi:10.7554/elife.80360)
# B1: HDV Ribozyme (parent)
# chain: GGCCGGCAUGGUCCCAGCCUCCUCGCUGGCGCCGGCUGGGCAACAUUCCGAGGGGACCGUCCCCUCGGUAAUGGCGAAUGGGACCCA
# Variants of: B1
# Assay: self-cleavage, relative activity (ratio to wild type); higher = more cleavage; co-transcriptional
row,Variant,self-cleavage
1,C15A G40A,0.77
2,C14U C44U,0.831
3,C15A G50C,0.404
4,C15A G50U,0.674
5,C15A G50A,0.527
6,C14U,1.09
7,C15A C33G,0
8,C15G C33A,0.0405
9,C15G C33G,0.0489
10,C15G C33U,0.415
11,C15A C19A,0.147
12,C14U U79A,1.02
13,C14U C32G,0.0462
14,C15A U37A,0.102
15,C14G G54U,0.776
16,C14G G54A,0.639
17,C14G G54C,0.277
18,C14U C75U,0.138
19,C15G C26G,0.431
20,C15G C26A,0.332
21,C15G C26U,0.623
22,C14G G76C,0.731
23,C14G G76A,0.831
24,C14G G76U,0.985

row,Variant,self-cleavage
1,C15A G52C,0.655
2,C15A G52A,0.708
3,C14G C36A,0.192
4,C14G C86G,0.604
5,C14G C86A,1.03
6,C15A G73C,0.249
7,C14G G82A,0.158
8,C14G G82U,0.196
9,C14G G82C,0.525
10,C14U A83G,0.54
11,C14U A83U,0.378
12,C15G C32G,0.145
13,C15G C32A,0.158
14,C15G C44A,0.237
15,C15G C44U,0.434
16,C14U C15A,0.475
17,C15G C19A,0.0831
18,C15G C19U,0.0898
19,C15G A43C,0.0875
20,C15A A77U,0.302
21,C14U C21U,0.237
22,C14U C21A,0
23,C15A U60A,0.623
24,C15A U60C,0.538

row,Variant,self-cleavage
1,C14G C58U,0.646
2,C15A A56C,0.782
3,C15G C41U,0.277
4,C15G C41A,0.529
5,C14G G38U,0.106
6,C15A U46C,0.653
7,C15A U46A,0.361
8,C14G G17C,0.0615
9,C14G G39A,0.277
10,C14G G39C,0.217
11,C14G G39U,0.237
12,C14U C19U,0.0723
13,C14U C19G,0.0396
14,C14G C48G,0.332
15,C14U C61A,1.14
16,C14U C61U,1.22
17,C14G G50A,1.15
18,C14G G50U,0.639
19,C14U A42C,0.232
20,C14U A42U,0.587
21,C14U U65C,0.997
22,C14U U65G,0.997
23,C14U U65A,1.22
24,C14U U60A,1.23

row,Variant,self-cleavage
1,C14U U60G,0.772
2,C14U U60C,1.11
3,C14G C30A,0.0396
4,C14G C49A,0.35
5,C15G A45C,0.217
6,C15G A45G,0.665
7,C15A G28C,0.0449
8,C15A C64A,0.689
9,C15A C64G,0.81
10,C15A C64U,0.623
11,C15A U23C,0.748
12,C14U G25U,0.59
13,C14U G25A,0.115
14,C14G C64A,0.511
15,C14G C64U,0.516
16,C15G C24G,0.196
17,C14U A87G,1.07
18,C14G C61U,0.598
19,C14G G40A,0.623
20,C14G G40C,0
21,C14U C58U,0.991
22,C14U C58G,1.17
23,C14G C33U,0.32
24,C14G C33G,0

row,Variant,self-cleavage
1,C14U A71U,1.1
2,C14U A71G,0.883
3,C14U A71C,0.831
4,C14U A70U,1.08
5,C14U A70G,0.931
6,C14U A70C,1.02
7,C14U G53A,1.11
8,C14U G53C,1.07
9,C14U G53U,1.16
10,C14U C84A,0.643
11,C14U C84G,0.914
12,C14U C41U,1.11
13,C14G U79A,0.266
14,C14U A45C,0.646
15,C15A G81U,0.232
16,C15A G81C,0.208
17,C14G U46G,0.237
18,C14G U46A,0.237
19,C15A C48U,0.54
20,C14G U37G,0
21,C15A A87C,0.654
22,C15A A87G,0.776
23,C15A A87U,0.746
24,C14U C33G,0.123

row,Variant,self-cleavage
1,C14U C33A,0.201
2,C14U C49A,1.37
3,C14U C49U,0.942
4,C14U G34U,0.248
5,C14U G39A,0.284
6,C14U G39C,0.262
7,C15A A71C,0.35
8,C15A A71G,0.443
9,C15A U69C,0.598
10,C14U G28A,0.0811
11,C14U G28C,0.237
12,C14U C57A,1.07
13,C14U C48A,0.928
14,C14U C48G,1.08
15,C14U G59A,1.31
16,C14U G59U,0.997
17,C14U G68U,1.04
18,C14U G68A,0.95
19,C14G U20C,0.0554
20,C14G U20A,0
21,C14G G53A,0.86
22,C14U G54A,1.04
23,C14U G54C,1.2
24,C14U C30G,0.0923

row,Variant,self-cleavage
1,C14U U47G,0.939
2,C14U U47C,1.13
3,C14U U69A,1.02
4,C14U G17U,0.511
5,C14U G17A,0.514
6,C14U G17C,0.156
7,C15A A70U,0.723
8,C15A A70G,0.755
9,C14U G35C,0.123
10,C14U G35U,0.288
11,C14G C85A,0.166
12,C14G C85G,0.415
13,C14G G29A,0.107
14,C15A U65A,0.388
15,C15A U65C,0.519
16,C15A U72G,0.277
17,C15A U72A,0.107
18,C15A U72C,0.208
19,C14U C62G,0.751
20,C14U C62U,0.923
21,C14U G81C,0.806
22,C14G G34U,0.0594
23,C14G G34C,0.138
